Read-outs that look alike come from different tables or passages of the source. Marks after values point to notes of the source that are not given here.
How the values were obtained:
[1] = test system: human gastric cancer cells (SGC-7901); conditions: cited from earlier work
[2] = test system: IFN-γ secreting expression; experiment: Neutralization activity of anti-rLZ-8 antibody by biological activity method (IFN-γ secreting expression stimulated by rLZ-8); assay type: cell-based
Protocol: As a fungal recombinant genetic engineering drug, it is crucial to track generation of antibody of the rLZ-8 for a preclinical evaluation. Blood serum of normal monkeys, Macaca fascicularis, after being continuously administrated, was selected for testing antibody of the rLZ-8 by ELISA and for testing a neutralization activity of anti-rLZ-8 antibody by a biological activity method.
On the 9th-11th days of administrating the drug, three monkeys were tested to have low titer (1:5) of the anti-rLZ-8 antibody; after the 28th day of administrating, the titer of the antibody maintained low, within a range of 1:25 to 1:125. No anti-rLZ-8 antibody was tested from the monkeys of the contrast group. […] Therefore, the inhibition effect of the monkey blood serum was not the property of the competitive neutralizing antibody.

[3] = test system: B16F10 orthotopic tumor; conditions: for Mortality rate (administration for 28 days) / Mortality rate (administration for 56 days): dead mice/animal number
Protocol: The mice were transplanted with a melanoma cells line B16-F10.
The mice melanoma cells B16-F10 were cultured in the DMEM containing 10% fetal bovine serum, at 37° C. in the CO2 thermostat incubator. 200 μl of B16-F10 cell suspension (containing 1×10^7 cells) was slowly subcutaneously injected into a dorsal-ventral side of the mouse through 1 ml syringe, so as to establish a model of mice transplanted with tumors. […] The rLZ-8 was injected once per day; the DTIC was continuously tail-intravenously injected for 5 days and injected for a second time after 3 weeks. During the experiment, living states of the mice were observed; the mice were weighed once every 7 days; blood samples were taken from tail veins of the mice every 2 weeks; volumes of the tumors, subcutaneously injected into the mice, were measured every 2 days; for each group, the tumors were dissected at an end of the experiment and weighed on the balance, with weights recorded. According to a formula that a tumor growth inhibition rate=(an average weight of the tumors of the physiological saline group−an average weight of the tumors of the drug administrated groups)/the average weight of the tumors of the physiological saline group, the inhibition rate of the rLZ-8 upon the growth of the orthotopic tumor was calculated.

[4] = test system: human lung carcinoma cells (A549); conditions: cited from earlier work
[5] = Toxicity test of rLZ-8 on SD rats; assay type: in vivo; parameters: Weight gains, male / Weight gains, female / BUN (blood urea nitrogen) / CHE (cholinesterase) / CRE (creatinine) / TBA (total bile acid) / UA (uric acid) / ALT (alanine aminotransferase) / AST (aspartate aminotransferase): unit not given here; conditions: for Weight gains, female: female SD rats; for Weight gains, female / Weight gains, male: 46 days; for Weight gains, male: male SD rats
Protocol: The administration dosages for the rats were calculated based on the administration dosage for the mice; the rats were divided into a contrast group (physiological saline), a low dosage group (15 μl/kg weight), a medium dosage group (30 μl/kg weight) and a high dosage group (60 μl/kg weight). The administration manner was an intraperitoneal injection.
Feeding amount, weight; serology: liver function and kidney function; immunity: thymus index and spleen index; serum complements IgM, IgG, C3 and C4; pathology examination: heart, liver, spleen, lung, kidney, pancreas, thymus, gonad etc.

[6] = test system: B16-F10 lung metastases; experiment: B16-F10 melanoma lung metastasis model (tail vein injection) in Kunming mice; assay type: in vivo; conditions: for Survival rate when all mice of the negative contrast group were dead: 87th / 95th day after injecting the tumors
From the text: DMEM, fetal bovine serum, PBS, trypsin-EDTA, DMSO, Tris-HCl buffer with pH 7.6 for rinsing, 0.05% trypsin, rLZ-8, and DTIC.
After the mice were put to death, lungs of the dead mice were dissected out and the number of black spots on surfaces of the lungs, formed by an aggregation of metastasis cell, was counted, so as to calculate the inhibition rate of the drug against the growth of the lung metastasis as: inhibition rate=(an average metastasis number of the negative contrast group−an average metastasis number of the drug administrated group)/the average metastasis number of the negative contrast group×100%. A time and the number of the dead mouse in each experiment group were recorded in detail, especially during administrating the drug continuously, until the negative contrast group was completely dead; and then, the survival states of the mice in the experiment groups and the contrast groups were analyzed. A survival rate was calculated according to the number of the dead mice in the other groups when all the mice of the negative contrast group were dead, based on a formula that survival rate=(a total number of the mice−the number of the dead mice)/the total number of the mice.

[7] = culture medium with anti-rLZ-8 antibody positive (1:125) monkey blood serum diluted 10 times
[8] = medium dosage 246 μg/kg, 28 days
[9] = medium dosage 246 μg/kg, 56 days
[10] = high dosage 60 μl/kg weight i.p.
[11] = low dosage 15 μl/kg weight i.p.
[12] = medium dosage 30 μl/kg weight i.p.

B1: rLZ-8: recombinant ganoderma immunoregulatory protein (LZ-8), fungal immunoregulatory protein obtained by gene engineering (protein, UniProt P14945 2-111, looked up)
Immunomodulatory protein Ling …: SDTALIFRLAWDVKKLSFDYTPNWGRGNPNNFIDTVTFPKVLTDKAYTYRVAVSGRNLGVKPSYAVESDGSQKVNFLEYNSGYGIADTNTIQVFVVDPDTNNDFIIAQWN
In the case of B1, the “Killing of cells in vitro” value [1] is given as “effectively kills”, the “Maximum expression value (Emax) of value A” value [2, 7] is given as 0.78±0.09 and the “Slope of the curve” value [2, 7] is given as 0.77±0.20. For the same molecule, the “Generation of neutralizing antibody” value ([2]; monkeys, continuous administration) was “does not generate the neutralizing antibody”, the “Half maximal inhibitory concentration IC50” value ([2]; with antibody positive monkey blood serum versus without) was “increased” and the “Increase of tumor inhibition rate between administration for 28 days and for 56 days” value ([3]; each rLZ-8 dosage group) was “around 15%”. For the same molecule, the Tumor weight ([3]; high dosage 492 μg/kg tail i.v. once per day, 28 days) was 0.14 ± 0.04 g, the “Tumor growth inhibition rate” value ([3]; high dosage 492 μg/kg, 28 days) was 88.49 ± 0.51 % and the Tumor volume ([3]; high dosage 492 μg/kg, 28 days) was 0.11 ± 0.03** mm^3. The “Tumor growth inhibition rate” value ([3]; high dosage 492 μg/kg, 56 days) was 95.66±1.77%, the Tumor volume ([3]; high dosage 492 μg/kg, 56 days) was 0.13 ± 0.09**^## mm^3 and the Tumor weight ([3]; high dosage 492 μg/kg, 56 days) was 0.15 ± 0.07 g. The “Mortality rate (administration for 28 days)” value ([3]; high dosage 492 μg/kg) was 0/10, the “Mortality rate (administration for 56 days)” value ([3]; high dosage 492 μg/kg) was 0/10 and the Tumor weight ([3]; low dosage 123 μg/kg tail i.v. once per day, 28 days) was 0.6 ± 0.21 g. For the same molecule, the “Tumor growth inhibition rate” value ([3]; low dosage 123 μg/kg, 28 days) was 51.81 ± 0.41 %, the Tumor volume ([3]; low dosage 123 μg/kg, 28 days) was 0.5 ± 0.14**^## mm^3 and the “Tumor growth inhibition rate” value ([3]; low dosage 123 μg/kg, 56 days) was 76.76 ± 0.53 %. The Tumor volume ([3]; low dosage 123 μg/kg, 56 days) was 0.65 ± 0.24**^# mm^3, the Tumor weight ([3]; low dosage 123 μg/kg, 56 days) was 0.79 ± 0.31**^ g and the “Mortality rate (administration for 28 days)” value ([3]; low dosage 123 μg/kg) was 0/10. The “Mortality rate (administration for 56 days)” value ([3]; low dosage 123 μg/kg) was 0/10, the Tumor weight ([3]; medium dosage 246 μg/kg tail i.v. once per day, 28 days) was 0.43 ± 0.17 g and the “Tumor growth inhibition rate” value [3, 8] was 65.00 ± 0.77 %. For the same molecule, the Tumor volume [3, 8] was 0.36 ± 0.14**^## mm^3, the “Tumor growth inhibition rate” value [3, 9] was 80.10 ± 1.01 % and the Tumor volume [3, 9] was 0.56 ± 0.18**^## mm^3. For the same molecule, the Tumor weight [3, 9] was 0.68 ± 0.19 g, the “Mortality rate (administration for 28 days)” value ([3]; medium dosage 246 μg/kg) was 0/10 and the “Mortality rate (administration for 56 days)” value ([3]; medium dosage 246 μg/kg) was 0/10. The Body leukocyte number ([3]; tumor-bearing mice, tail vein blood, anti-tumor treatment experiment (28/56 days)) was “small impact on the body leukocyte number”, the “Killing of cells in vitro” value [4] was “effectively kills” and the “Impact on liver function and kidney function” value ([5]; SD rats, all dosage groups) was “no obvious adverse impact on the liver function and the kidney function”. For the same molecule, the “Pathology examination of tested organs” value ([5]; compared with the organs of the contrast group) was “no obvious morphological change”, the “Weight gains, female” value [5, 10] was 133.37 ± 15.29 and the “Weight gains, female” value [5, 11] was 140.00 ± 23.48. The “Weight gains, female” value [5, 12] was 124.08 ± 14.17, the “ALB (albumin)” value [5, 10] was 34.77 ± 1.44 and the “ALP (alkaline phosphatase)” value [5, 10] was 218.50 ± 69.98. The “ALT (alanine aminotransferase)” value [5, 10] was 30.75 ± 2.42, the “AST (aspartate aminotransferase)” value [5, 10] was 128.58 ± 18.74 and the “BUN (blood urea nitrogen)” value [5, 10] was 7.24 ± 0.89. For the same molecule, the C3 [5, 10] was 0.428 ± 0.082 g/L, the C4 [5, 10] was 0.352 ± 0.016 g/L and the “CHE (cholinesterase)” value [5, 10] was 456.17 ± 309.59. For the same molecule, the “CRE (creatinine)” value [5, 10] was 24.22 ± 2.55, the IgG [5, 10] was 0.124 ± 0.081 g/L and the IgM [5, 10] was 0.236 ± 0.076 g/L. The “Spleen index (spleen weight/weight × 100)” value [5, 10] was 0.19 ± 0.02, the “TBA (total bile acid)” value [5, 10] was 37.30 ± 17.63 and the “TP (total protein)” value [5, 10] was 63.23 ± 2.88. For the same molecule, the “Thymus index (thymus weight/weight × 100)” value [5, 10] was 0.17 ± 0.03, the “UA (uric acid)” value [5, 10] was 164.50 ± 28.94 and the “ALB (albumin)” value [5, 11] was 37.54 ± 1.62. The “ALP (alkaline phosphatase)” value [5, 11] was 243.50 ± 103.54, the “ALT (alanine aminotransferase)” value [5, 11] was 35.50 ± 4.93 and the “AST (aspartate aminotransferase)” value [5, 11] was 175.00 ± 34.96. The “BUN (blood urea nitrogen)” value [5, 11] was 7.54 ± 0.47, the C3 [5, 11] was 0.449 ± 0.097 g/L and the C4 [5, 11] was 0.397 ± 0.021 g/L. The “CHE (cholinesterase)” value [5, 11] was 474.17 ± 305.10, the “CRE (creatinine)” value [5, 11] was 24.97 ± 1.89 and the IgG [5, 11] was 0.146 ± 0.021 g/L. The IgM [5, 11] was 0.220 ± 0.080 g/L, the “Spleen index (spleen weight/weight × 100)” value [5, 11] was 0.19 ± 0.03 and the “TBA (total bile acid)” value [5, 11] was 30.13 ± 16.29. The “TP (total protein)” value [5, 11] was 67.58 ± 3.34, the “Thymus index (thymus weight/weight × 100)” value [5, 11] was 0.15 ± 0.03 and the “UA (uric acid)” value [5, 11] was 174.42 ± 46.65. For the same molecule, the “Weight gains, male” value [5, 10] was 221.92 ± 21.84, the “Weight gains, male” value [5, 11] was 215.25 ± 17.82 and the “Weight gains, male” value [5, 12] was 218.67 ± 10.89. For the same molecule, the “ALB (albumin)” value [5, 12] was 36.57 ± 2.20, the “ALP (alkaline phosphatase)” value [5, 12] was 242.83 ± 80.94 and the “ALT (alanine aminotransferase)” value [5, 12] was 34.42 ± 4.50. The “AST (aspartate aminotransferase)” value [5, 12] was 169.08 ± 30.83, the “BUN (blood urea nitrogen)” value [5, 12] was 7.36 ± 0.97 and the C3 [5, 12] was 0.457 ± 0.088 g/L. The C4 [5, 12] was 0.412 ± 0.017 g/L, the “CHE (cholinesterase)” value [5, 12] was 487.17 ± 303.02 and the “CRE (creatinine)” value [5, 12] was 24.26 ± 3.55. For the same molecule, the IgG [5, 12] was 0.121 ± 0.021 g/L, the IgM [5, 12] was 0.228 ± 0.084 g/L and the “Spleen index (spleen weight/weight × 100)” value [5, 12] was 0.18 ± 0.02. The “TBA (total bile acid)” value [5, 12] was 38.25 ± 18.15, the “TP (total protein)” value [5, 12] was 66.58 ± 4.77 and the “Thymus index (thymus weight/weight × 100)” value [5, 12] was 0.12 ± 0.02. For the same molecule, the “UA (uric acid)” value [5, 12] was 186.83 ± 45.67, the “Survival rate when all mice of the negative contrast group were dead” value (shortened to “Survival rate when all mice”) ([6]; high dosage 492 μg/kg) was 10% and the “Tumor metastases inhibition rate” value ([6]; high dosage 492 μg/kg, 28 days) was 71.17±2.43%. For the same molecule, the “Tumor metastases inhibition rate” value ([6]; high dosage 492 μg/kg, 56 days) was 89.78 ± 2.77 %, the “Survival rate when all mice” value ([6]; low dosage 123 μg/kg) was 25% and the “Tumor metastases inhibition rate” value ([6]; low dosage 123 μg/kg, 28 days) was 62.13±1.88%. The “Tumor metastases inhibition rate” value ([6]; low dosage 123 μg/kg, 56 days) was 66.18 ± 1.79 %, the “Survival rate when all mice” value ([6]; medium dosage 246 μg/kg) was 30% and the “Tumor metastases inhibition rate” value [6, 9] was 84.31 ± 3.12 %.

Reference: patent US20160129077A1, “Use of recombinant ganoderma immunoregulatory protein (rLZ-8) in preparation of drug for treating melanoma” (priority 2013, published 2016)
